Results reported in patent publication US5336488A, “Method of treating or preventing mastitis in animals with involuting mammary glands by administering recombinant cytokines” (American Cyanamid Company, priority 1992, dated 1994).

Key:
milk PMNs [1] = assay: Phagocytosis of fluorescent beads by milk PMNs (flow cytometry) after intramammary infusion; assay type: in vivo, bovine (Holstein dairy cattle)
Procedure: (§1) FIGS. 2(A-I): Quantity and Quality of Milk PMNs from Mammary Glands Infused with r-BolL-1 or r-BoIL-2
(§2) A total of 12 mammary glands from normal lactating Holstein dairy cattle are infused through the teat canal with either 200 μg of r-BoIL-1; 2 mg of r-BoIL-2; or 1 mg of r-BoGM-CSF. Milk samples are collected and the number of viable somatic cells counted on a Coulter® ZM with a C256 Channelyzer. The data is expressed as the somatic cell count per ml of milk sampled at 16, 40, 64 and 88 hours after infusion for r-BoIL-1 (A); r-BoIL-2 (D); or r-BoGM-CSF(G). The total percentage of phagocytosis by milk PMNs (polymorphonuclear cells) is quantitatively measured by flow cytometry by measuring the percentage of cells ingesting 2μ fluorescent beads for r-BoIL-1 (B); r-BoIL-2(E); or r-BoGM-CSF(H). The total population is first gated by forward angle light scatter, FALS and 90° light scatter to only consider viable polymorphonuclear cells. The induction of superoxide after PMA (520.eta.g)stimulation is also monitored using a whole cell cytochrome-c reduction assay, for r-BoIL-1 (C); r-BoIL-2(F); or r-BoGM-CSF(I). PMNs from untreated milk could not be induced to produce superoxide, while peripheral blood PMNs are inducible in a range of 5-15 .eta.M O2 /Minute/10^7 PMNs.

milk PMNs [2] = assay: Inducible superoxide of milk PMNs after PMA stimulation (cytochrome-c reduction); assay type: in vivo, bovine (Holstein dairy cattle)
Procedure: as §1, §2

[3] = Specific biological activity of recombinant cytokine protein; settings: for in vitro specific bioactivities: r-BoIL-1 compared with r-BoIL-2; for biological activity: mass of protein
S. aureus = assay: Therapy of established S. aureus mastitis infections; assay type: in vivo, S. aureus (in lactating Holstein dairy cattle); settings: for most efficacious dosing: compared with a single bolus; for dose response of therapeutic efficacy / therapeutic efficacy in infected mammary glands: intramammary infusion
Procedure: The percentage of quarters clearing the infection for greater than 1 milking (RESPONDING), as compared to the percentage of quarters which actually cure their infections (CURE) is a measure of the failure of the host cells to kill the bacteria. The relapse rate is the greatest for r-BoIL-2 (combined relapse rate of 40% for the 10 mg dose X's 3). […] Furthermore, if activation of the host cells is effective, as indicated by the r-BoIL-2 and r-BoGM-CSF, then a combination therapy with r-BoIL-1 or antibiotics is useful.
^1 S. aureus infections are established 2-3 weeks prior to treatment.
Treatments are administered after the AM or PM milking by 1-3 successive
intramammary infusions. A total of 120 mammary glands from 28 different
lactating Holstein dairy cattle are used. Recombinant bovine
interleukin1(IL-1) and interleukin2(IL-2) are obtained from IMMUNEX Corp.
Seattle, WA. Na cephapirin is prepared is PBS; and CefaLak ®
(BristolMeyers) is used according to package# insert instructions.
^2 Cytokines are infused intramammary through the teat canal after th
PM milking at the indicated intervals. The total dose is delivered in a
total volume of 10 ml of sterile PBS. The biological activity of rBoIL-1
and rBoIL-2 is 32,000 Units/μg and 22,000 Units/μg, respectively. A
total dose per infusion 200 mg of Na cephapirin and CefaLak ® is
administered after consecutive PM and AM milkings, according to described
^3 The % RESPONDING = quarters which transiently (> 1 milking) are
free of S. aureus divided by the total number of quarters treated.
^4 The % CURED QUARTERS = # of quarters which clear their infection
and remain free of S. aureus divided by the total number of quarters
treated. Infections are considered to have relapsed if there are > 1 CFUs
from three consecutive AM milkings, or > 20 CFUs for two consecutive afte
therapy at anytime during the 14 day monitoring period.
^5 The % RELAPSE = [1 - {[…]}] ×

Bovine Mammary Gland = assay: Dose response of bovine mammary gland to intramammary infusion: somatic cell influx into milk; assay type: in vivo, bovine (Holstein dairy cattle); settings: for infiltration of somatic cells into the milk: lactating cattle, FIG. 1; for minimal effective dose: somatic cell influx
Procedure: FIG. 1: Dose Response of Bovine Mammary Gland to Intramammary Infusion of Recombinant Cytokines
Five fold serial dilutions of r-BolL-1 (recombinant bovine interleukin-1) from 312.5 μg to […]: r-BoIL-2 (recombinant bovine interleukin-2) from 40 mg to 0.1 mg: and r-BoGM-CSF (recombinant bovine granulocyte macrophage colony stimulating factor) from 0.2 mg to […] are administered at time 0 into 3-4 mammary glands from normal lactating Holstein dairy cattle. A total of 54 mammary gland quarters, 3-4 per group, are infused through the teat canal with various concentrations of recombinant bovine cytokines after the morning milking. Milk samples are collected and the number of viable somatic cells counted on a Coulter® ZM with a C256 Channelyzer. The data is expressed as the somatic cell count per ml of milk
These doses are guidelines for quantitative induction of somatic cells, but significant beneficial qualitative changes can be induced with lower doses. The specific biological activity for r-BoIL-1 as a chemoattractant is approximately 10,000 fold greater than r-BoIL-2, although the in vitro specific bioactivities are equivalent. Active IL-2 inhibition or decreased biostability in milk might explain this discrepancy. The peak number of cells after r-BoIL-1 infusion with a maximal tolerable dose is 4-5 fold greater than r-BoIL-2. The kinetics of PMN migration into the mammary gland is such that migration occurs 8- 24 hours sooner for r-BoIL-1 infusions […] the BolL-2 infusion depending upon the dose. The dominant cell type after r-BoIL-1 or r-BoIL-2 infusion is PMNs.

milk PMNs [4] = assay: Quantity of milk PMNs after intramammary infusion; assay type: in vivo, bovine (Holstein dairy cattle)
Procedure: as §1, §2

[5] = IL-1 multiple, 10 μg, interval 24 hrs
[6] = IL-1 multiple, 10 μg, interval 48 hrs
[7] = IL-1 multiple, 200 μg, interval 24 hrs
[8] = IL-1 multiple, 200 μg, interval 48 hrs
[9] = IL-2 multiple, 2 mg, interval 24 hrs
[10] = IL-2 multiple, 10 mg, interval 24 hrs

B1: recombinant bovine interleukin-1 (protein, UniProt P09428 114-266, looked up)
Interleukin-1 beta: APVQSIKCKLQDREQKSLVLASPCVLKALHLLSQEMNREVVFCMSFVQGEERDNKIPVALGIKDKNLYLSCVKKGDTPTLQLEEVDPKVYPKRNMEKRFVFYKTEIKNTVEFESVLYPNWYISTSQIEERPVFLGHFRGGQDITDFRMETLSP
notes: recombinant bovine interleukin-1, obtained from IMMUNEX Corp. Seattle, WA
phagocytosis (milk PMNs [1]; 200 μg r-BoIL-1, FIG. 2B): unaffected | inducible superoxide upon phorbol ester stimulation (milk PMNs [2]; 200 μg r-BoIL-1, vs resident PMNs, FIG. 2C): significantly increased over the resident PMNs | in vitro specific bioactivities [3]: equivalent | biological activity [3]: 32,000 Units/μg | % CURES (S. aureus; [5]): 8% | % RELAPSE (S. aureus; [5]): 90% | % RESPONSE (S. aureus; [5]): 77% | % CURES (S. aureus; [6]): 0% | % RELAPSE (S. aureus; [6]): 100% | % RESPONSE (S. aureus; [6]): 39% | % CURES (S. aureus; [7]): 7% | % RELAPSE (S. aureus; [7]): 91% | % RESPONSE (S. aureus; [7]): 79% | % CURES (S. aureus; [8]): 29% | % RELAPSE (S. aureus; [8]): 54% | % RESPONSE (S. aureus; [8]): 64% | % CURES (S. aureus; IL-1 single, 10 μg): 11% | % RELAPSE (S. aureus; IL-1 single, 10 μg): 0% | % RESPONSE (S. aureus; IL-1 single, 10 μg): 11% | % CURES (S. aureus; IL-1 single, 200 μg): 0% | % RELAPSE (S. aureus; IL-1 single, 200 μg): 100% | % RESPONSE (S. aureus; IL-1 single, 200 μg): 20% | % CURES (S. aureus; IL-1 single, 600 μg): 0% | % RELAPSE (S. aureus; IL-1 single, 600 μg): 100% | % RESPONSE (S. aureus; IL-1 single, 600 μg): 10% | relapse rate (S. aureus; as quoted in text of Example 5): 54% | most efficacious dosing (S. aureus): most efficacious if doses are administered over 3 consecutive milkings | dose response of therapeutic efficacy (S. aureus): dose response therapeutic efficacy | therapeutic efficacy in infected mammary glands (S. aureus): effectively treated | PMN migration into the mammary gland occurs sooner than with BoIL-2 infusion (Bovine Mammary Gland; depending upon the dose): 8 to 24 h | dominant cell type after infusion (Bovine Mammary Gland; intramammary infusion): PMNs | maximal tolerable dose (Bovine Mammary Gland; intramammary infusion): 1000 mg | infiltration of somatic cells into the milk (Bovine Mammary Gland; intramammary infusion): induce an infiltration of somatic cells into the milk in a dose related manner | specific biological activity as a chemoattractant, greater than r-BoIL-2 (Bovine Mammary Gland; intramammary infusion, relative to r-BoIL-2): approximately 10,000 fold | minimal effective dose (Bovine Mammary Gland; intramammary infusion): 0.5 mg | peak number of cells after infusion, greater than r-BoIL-2 (Bovine Mammary Gland; maximal tolerable dose, relative to r-BoIL-2): 4-5 fold | increase over the pre-treatment number of PMNs (milk PMNs [4]; 16 hours, 200 μg, FIG. 2A): 150 × | increase over the pre-treatment number of PMNs (milk PMNs [4]; 40 hours, 200 μg, FIG. 2A): 20 × | number of PMNs (milk PMNs [4]; by 112 hours, 200 μg, FIG. 2A): back to normal levels by 112 hours

B2: recombinant bovine interleukin-2 (protein, UniProt P05016 21-155, looked up)
Interleukin-2: APTSSSTGNTMKEVKSLLLDLQLLLEKVKNPENLKLSRMHTFDFYVPKVNATELKHLKCLLEELKLLEEVLNLAPSKNLNPREIKDSMDNIKRIVLELQGSETRFTCEYDDATVNAVEFLNKWITFCQSIYSTMT
notes: recombinant bovine interleukin-2, obtained from IMMUNEX Corp. Seattle, WA
percent phagocytosis (milk PMNs [1]; by 112 hrs, 2 mg r-BoIL-2, FIG. 2E): still above the pre-treatment level | average number of ingested beads per phagocytic cell (milk PMNs [1]; r-BoIL-2, upon activation): increased upon activation | phagocytosis increase over resident PMNs (milk PMNs [1]; within 40-64 hours, 2 mg r-BoIL-2, FIG. 2E): 2-3 fold | inducible superoxide, duration (milk PMNs [2]; 2 mg r-BoIL-2, FIG. 2F): remains throughout the 96 hours of sampling | inducible superoxide (milk PMNs [2]; 2 mg r-BoIL-2, vs resident PMNs, FIG. 2F): significantly increased over the resident PMNs | in vitro specific bioactivities [3]: equivalent | biological activity [3]: 22,000 Units/μg | biological activity ([3]; Table 3 footnote 3): 22,000 Units μg | combined relapse rate (S. aureus; 10 mg dose X's 3): 40% | % CURES (S. aureus; [9]): 9% | % RELAPSE (S. aureus; [9]): 84% | % RESPONSE (S. aureus; [9]): 55% | % CURES (S. aureus; [10]): 25% | % RELAPSE (S. aureus; [10]): 57% | % RESPONSE (S. aureus; [10]): 58% | % RESPONSE (S. aureus; IL-2 multiple, 10 mg, interval 48 hrs): 33% | % CURES (S. aureus; IL-2 single, 2 μg): 0% | % RESPONSE (S. aureus; IL-2 single, 2 μg): 0% | % CURES (S. aureus; IL-2 single, 10 μg): 0% | % RELAPSE (S. aureus; IL-2 single, 10 μg): 100% | % RESPONSE (S. aureus; IL-2 single, 10 μg): 20% | % CURES (S. aureus; IL-2 single, 30 μg): 10% | % RELAPSE (S. aureus; IL-2 single, 30 μg): 0% | % RESPONSE (S. aureus; IL-2 single, 30 μg): 10% | most efficacious dosing (S. aureus): most efficacious if doses are administered over 3 consecutive milkings | dose response of therapeutic efficacy (S. aureus): dose response therapeutic efficacy | therapeutic efficacy in infected mammary glands (S. aureus): effectively treated | dominant cell type after infusion (Bovine Mammary Gland; intramammary infusion): PMNs | maximal tolerable dose (Bovine Mammary Gland; intramammary infusion): 30 mg | infiltration of somatic cells into the milk (Bovine Mammary Gland; intramammary infusion): induce an infiltration of somatic cells into the milk in a dose related manner | minimal effective dose (Bovine Mammary Gland; intramammary infusion): 0.5 mg | milk PMNs (quantity) (milk PMNs [4]; 2 mg, FIG. 2D): quantitative increase in milk PMNs | milk PMNs (quantity), decline (milk PMNs [4]; after 72 hours, 2 mg, FIG. 2D): diminishes after 72 hours, to control levels
